Target: the molecule itself
Experiment: crystal structure; hanging-drop vapour diffusion, 23°C, 0.2 M lithium sulphate monohydrate, 0.1 M TRIS hydrochloride pH 8.5, 30% PEG 8,000; single protomer in the asymmetric unit, tetramer found by PISA analysis of the crystal

B1: Acinetobacter baumannii short-chain dehydrogenase reductase (enzyme)
chain: SNAMKLDLQNKIAVVSGSTSGIGLGIAKGLASAGATVVVVGRKQAGVDEAIAHIRQSVPEASLRGVDADLTTEQGAAALFAAEPKADILVNNLGIFNDEDFFSVPDEEWMRFYQVNVLSGVRLARHYAPSMVEQGWGRIIFISSESGVAIPGDMINYGVTKSANLAVSHGLAKRLAGTGVTVNAVLPGPTFTDGLENMLADAAAKAGRSTRDQADEFVKVLRPSSIIQRAAEVDEVANMVVYIASPLSSATSGAALRVDGGVVDTLV
notes: residues of the vector printed after the TEV cleavage site (ENLYFQ/SNA), left on the protein after the tag is removed; short-chain dehydrogenase reductase (SDR) of Acinetobacter baumannii; Vector pMCSG21; one protomer in the asymmetric unit, the tetramer comes from crystal symmetry (PISA); also called SDR; SDR enzyme; source: E. coli BL21(DE3) pLysS, purified (HisTrap, TEV cleavage, Superdex …)
stoichiometry N: 4
